Data: patent US20160272693A1 (ZEALAND PHARMA A S, published 2016)
Values belong to the binder of their own block, whether it stands above or below them. *1 amine or outer side, *2 acyl side, *3 side chain or, on linkers, in order; H or OH if unused. Bridges are numbered along the chain shown (N, C = ends). [ ]: non-standard residue; d: D form. The star is where a group is joined. C20 diacid = O=C(O)CCCCCCCCCCCCCCCCCCC(=O)*; γGlu = O=C(O)[C@H](CCC(=O)[*:2])N[*:1]; Hyp = O=C(O)[C@@H]1C[C@@H](O)CN1; NMeI = CC[C@H](C)[C@H](NC)C(=O)O; Sar = CNCC(=O)O

Target: T1, human amylin receptor 3 (hAMYR3), hCTR2 co-expressed with human receptor activity modifying protein 3 (hRAMP3) (human, UniProt P30988 25-474; O60896 24-148)
T1 sequence (looked up) 1: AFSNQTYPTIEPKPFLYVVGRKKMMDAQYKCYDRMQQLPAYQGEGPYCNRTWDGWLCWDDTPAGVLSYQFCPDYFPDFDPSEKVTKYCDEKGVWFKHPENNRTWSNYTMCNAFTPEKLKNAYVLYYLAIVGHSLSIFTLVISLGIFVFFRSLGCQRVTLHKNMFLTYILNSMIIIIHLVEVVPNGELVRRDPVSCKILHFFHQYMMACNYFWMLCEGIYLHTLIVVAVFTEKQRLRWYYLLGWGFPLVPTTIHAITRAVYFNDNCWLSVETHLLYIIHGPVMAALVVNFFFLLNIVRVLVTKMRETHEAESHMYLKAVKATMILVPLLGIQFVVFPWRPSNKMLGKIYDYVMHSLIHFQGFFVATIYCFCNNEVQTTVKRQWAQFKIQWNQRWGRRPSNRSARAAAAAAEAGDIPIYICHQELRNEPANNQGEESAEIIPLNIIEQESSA
T1 sequence (looked up) 2: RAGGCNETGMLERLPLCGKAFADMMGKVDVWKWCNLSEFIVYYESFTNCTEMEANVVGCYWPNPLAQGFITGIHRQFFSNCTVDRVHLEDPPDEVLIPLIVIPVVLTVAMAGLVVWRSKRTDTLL
Test: cell-based or functional assay

B2: [19CD]-isoGlu-R-C( )-GTAT-C( )-ATERLAHFLTRSSF-Gly(Me)-A-Ile(Me)-LSSTEVGSNT-Hyp-NH2 (Compd. 18) (peptide)
peptide: {C20 diacid}-[γGlu]RCGTATCATERLAHFLTRSSF[Sar]A[NMeI]LSSTEVGSNT[Hyp]-NH2
modifications: disulfide 3-8
SMILES: CC[C@H](C)[C@@H](C(=O)N[C@@H](CC(C)C)C(=O)N[C@@H](CO)C(=O)N[C@@H](CO)C(=O)N[C@H](C(=O)N[C@@H](CCC(=O)O)C(=O)N[C@H](C(=O)NCC(=O)N[C@@H](CO)C(=O)N[C@@H](CC(N)=O)C(=O)N[C@H](C(=O)N1C[C@H](O)C[C@H]1C(N)=O)[C@@H](C)O)C(C)C)[C@@H](C)O)N(C)C(=O)[C@H](C)NC(=O)CN(C)C(=O)[C@H](Cc1ccccc1)NC(=O)[C@H](CO)NC(=O)[C@H](CO)NC(=O)[C@H](CCCNC(=N)N)NC(=O)[C@@H](NC(=O)[C@H](CC(C)C)NC(=O)[C@H](Cc1ccccc1)NC(=O)[C@H](Cc1c[nH]cn1)NC(=O)[C@H](C)NC(=O)[C@H](CC(C)C)NC(=O)[C@H](CCCNC(=N)N)NC(=O)[C@H](CCC(=O)O)NC(=O)[C@@H](NC(=O)[C@H](C)NC(=O)[C@@H]1CSSC[C@H](NC(=O)[C@H](CCCNC(=N)N)NC(=O)CC[C@H](NC(=O)CCCCCCCCCCCCCCCCCCC(=O)O)C(=O)O)C(=O)NCC(=O)N[C@@H]([C@@H](C)O)C(=O)N[C@@H](C)C(=O)N[C@@H]([C@@H](C)O)C(=O)N1)[C@@H](C)O)[C@@H](C)O
hAMYR3 EC50 (nM); cAMP induction: 0.41 nM

B5: [19CD]-isoGlu-R-C( )-GTAT-C( )-ATERLAHFLKRSSF-Gly(Me)-A-Ile(Me)-LSSTEVGSNT-Hyp-NH2 (Compd. 19) (peptide)
peptide: {C20 diacid}-[γGlu]RCGTATCATERLAHFLKRSSF[Sar]A[NMeI]LSSTEVGSNT[Hyp]-NH2
modifications: disulfide 3-8
SMILES: CC[C@H](C)[C@@H](C(=O)N[C@@H](CC(C)C)C(=O)N[C@@H](CO)C(=O)N[C@@H](CO)C(=O)N[C@H](C(=O)N[C@@H](CCC(=O)O)C(=O)N[C@H](C(=O)NCC(=O)N[C@@H](CO)C(=O)N[C@@H](CC(N)=O)C(=O)N[C@H](C(=O)N1C[C@H](O)C[C@H]1C(N)=O)[C@@H](C)O)C(C)C)[C@@H](C)O)N(C)C(=O)[C@H](C)NC(=O)CN(C)C(=O)[C@H](Cc1ccccc1)NC(=O)[C@H](CO)NC(=O)[C@H](CO)NC(=O)[C@H](CCCNC(=N)N)NC(=O)[C@H](CCCCN)NC(=O)[C@H](CC(C)C)NC(=O)[C@H](Cc1ccccc1)NC(=O)[C@H](Cc1c[nH]cn1)NC(=O)[C@H](C)NC(=O)[C@H](CC(C)C)NC(=O)[C@H](CCCNC(=N)N)NC(=O)[C@H](CCC(=O)O)NC(=O)[C@@H](NC(=O)[C@H](C)NC(=O)[C@@H]1CSSC[C@H](NC(=O)[C@H](CCCNC(=N)N)NC(=O)CC[C@H](NC(=O)CCCCCCCCCCCCCCCCCCC(=O)O)C(=O)O)C(=O)NCC(=O)N[C@@H]([C@@H](C)O)C(=O)N[C@@H](C)C(=O)N[C@@H]([C@@H](C)O)C(=O)N1)[C@@H](C)O
hAMYR3 EC50 (nM); cAMP induction: 0.28 nM

B6: [19CD]-isoGlu-R-C( )-GTAT-C( )-ATERLAHFLVRSSF-Gly(Me)-A-Ile(Me)-LSSTEVGSETP-NH2 (Compd. 22) (peptide)
peptide: {C20 diacid}-[γGlu]RCGTATCATERLAHFLVRSSF[Sar]A[NMeI]LSSTEVGSETP-NH2
modifications: disulfide 3-8
SMILES: CC[C@H](C)[C@@H](C(=O)N[C@@H](CC(C)C)C(=O)N[C@@H](CO)C(=O)N[C@@H](CO)C(=O)N[C@H](C(=O)N[C@@H](CCC(=O)O)C(=O)N[C@H](C(=O)NCC(=O)N[C@@H](CO)C(=O)N[C@@H](CCC(=O)O)C(=O)N[C@H](C(=O)N1CCC[C@H]1C(N)=O)[C@@H](C)O)C(C)C)[C@@H](C)O)N(C)C(=O)[C@H](C)NC(=O)CN(C)C(=O)[C@H](Cc1ccccc1)NC(=O)[C@H](CO)NC(=O)[C@H](CO)NC(=O)[C@H](CCCNC(=N)N)NC(=O)[C@@H](NC(=O)[C@H](CC(C)C)NC(=O)[C@H](Cc1ccccc1)NC(=O)[C@H](Cc1c[nH]cn1)NC(=O)[C@H](C)NC(=O)[C@H](CC(C)C)NC(=O)[C@H](CCCNC(=N)N)NC(=O)[C@H](CCC(=O)O)NC(=O)[C@@H](NC(=O)[C@H](C)NC(=O)[C@@H]1CSSC[C@H](NC(=O)[C@H](CCCNC(=N)N)NC(=O)CC[C@H](NC(=O)CCCCCCCCCCCCCCCCCCC(=O)O)C(=O)O)C(=O)NCC(=O)N[C@@H]([C@@H](C)O)C(=O)N[C@@H](C)C(=O)N[C@@H]([C@@H](C)O)C(=O)N1)[C@@H](C)O)C(C)C
hAMYR3 EC50 (nM); cAMP induction: 0.59 nM

Other lines, results leading:

hAMYR3 EC50 (nM); cAMP induction: 0.33 nM
B1: [19CD]-isoGlu-R-C( )-NTAT-C( )-ATQRLAHFLHRSVF-Gly(Me)-A-Ile(Me)-LSSTEVGSETP-NH2 (Compd. 20) (peptide)
peptide: {C20 diacid-γGlu}-RCNTATCATQRLAHFLHRSVF[Sar]A[NMeI]LSSTEVGSETP-NH2
modifications: disulfide 2-7
SMILES: CC[C@H](C)[C@@H](C(=O)N[C@@H](CC(C)C)C(=O)N[C@@H](CO)C(=O)N[C@@H](CO)C(=O)N[C@H](C(=O)N[C@@H](CCC(=O)O)C(=O)N[C@H](C(=O)NCC(=O)N[C@@H](CO)C(=O)N[C@@H](CCC(=O)O)C(=O)N[C@H](C(=O)N1CCC[C@H]1C(N)=O)[C@@H](C)O)C(C)C)[C@@H](C)O)N(C)C(=O)[C@H](C)NC(=O)CN(C)C(=O)[C@H](Cc1ccccc1)NC(=O)[C@@H](NC(=O)[C@H](CO)NC(=O)[C@H](CCCNC(=N)N)NC(=O)[C@H](Cc1c[nH]cn1)NC(=O)[C@H](CC(C)C)NC(=O)[C@H](Cc1ccccc1)NC(=O)[C@H](Cc1c[nH]cn1)NC(=O)[C@H](C)NC(=O)[C@H](CC(C)C)NC(=O)[C@H](CCCNC(=N)N)NC(=O)[C@H](CCC(N)=O)NC(=O)[C@@H](NC(=O)[C@H](C)NC(=O)[C@@H]1CSSC[C@H](NC(=O)[C@H](CCCNC(=N)N)NC(=O)CC[C@H](NC(=O)CCCCCCCCCCCCCCCCCCC(=O)O)C(=O)O)C(=O)N[C@@H](CC(N)=O)C(=O)N[C@@H]([C@@H](C)O)C(=O)N[C@@H](C)C(=O)N[C@@H]([C@@H](C)O)C(=O)N1)[C@@H](C)O)C(C)C

hAMYR3 EC50 (nM); cAMP induction: 0.12 nM
Binder: {C20 diacid-γGlu}-RCNTATCATQRLAHFLHRSSF[Sar]A[NMeI]LSSTEVGSETP-NH2 (disulfide 2-7) [[19CD]-isoGlu-R-C( )-NTAT-C( )-ATQRLAHFLHRSSF-Gly(Me)-A-Ile(Me)-LSSTEVGSETP-NH2 (Compd. 2)]

hAMYR3 EC50 (nM); cAMP induction: 0.23 nM
B3: [19CD]-isoGlu-R-C( )-NTAT-C( )-ATQRLAHFLHRVSF-Gly(Me)-A-Ile(Me)-LSSTEVGSETP-NH2 (Compd. 21) (peptide)
peptide: {C20 diacid-γGlu}-RCNTATCATQRLAHFLHRVSF[Sar]A[NMeI]LSSTEVGSETP-NH2
modifications: disulfide 2-7
SMILES: CC[C@H](C)[C@@H](C(=O)N[C@@H](CC(C)C)C(=O)N[C@@H](CO)C(=O)N[C@@H](CO)C(=O)N[C@H](C(=O)N[C@@H](CCC(=O)O)C(=O)N[C@H](C(=O)NCC(=O)N[C@@H](CO)C(=O)N[C@@H](CCC(=O)O)C(=O)N[C@H](C(=O)N1CCC[C@H]1C(N)=O)[C@@H](C)O)C(C)C)[C@@H](C)O)N(C)C(=O)[C@H](C)NC(=O)CN(C)C(=O)[C@H](Cc1ccccc1)NC(=O)[C@H](CO)NC(=O)[C@@H](NC(=O)[C@H](CCCNC(=N)N)NC(=O)[C@H](Cc1c[nH]cn1)NC(=O)[C@H](CC(C)C)NC(=O)[C@H](Cc1ccccc1)NC(=O)[C@H](Cc1c[nH]cn1)NC(=O)[C@H](C)NC(=O)[C@H](CC(C)C)NC(=O)[C@H](CCCNC(=N)N)NC(=O)[C@H](CCC(N)=O)NC(=O)[C@@H](NC(=O)[C@H](C)NC(=O)[C@@H]1CSSC[C@H](NC(=O)[C@H](CCCNC(=N)N)NC(=O)CC[C@H](NC(=O)CCCCCCCCCCCCCCCCCCC(=O)O)C(=O)O)C(=O)N[C@@H](CC(N)=O)C(=O)N[C@@H]([C@@H](C)O)C(=O)N[C@@H](C)C(=O)N[C@@H]([C@@H](C)O)C(=O)N1)[C@@H](C)O)C(C)C

hAMYR3 EC50 (nM); cAMP induction: 0.61 nM
B4: [19CD]-isoGlu-R-C( )-GTAT-C( )-ATERLANFLVRSSF-Gly(Me)-A-Ile(Me)-LSSTEVGSNT-Hyp-NH2 (Compd. 17) (peptide)
peptide: {C20 diacid-γGlu}-RCGTATCATERLANFLVRSSF[Sar]A[NMeI]LSSTEVGSNT[Hyp]-NH2
modifications: disulfide 2-7
SMILES: CC[C@H](C)[C@@H](C(=O)N[C@@H](CC(C)C)C(=O)N[C@@H](CO)C(=O)N[C@@H](CO)C(=O)N[C@H](C(=O)N[C@@H](CCC(=O)O)C(=O)N[C@H](C(=O)NCC(=O)N[C@@H](CO)C(=O)N[C@@H](CC(N)=O)C(=O)N[C@H](C(=O)N1C[C@H](O)C[C@H]1C(N)=O)[C@@H](C)O)C(C)C)[C@@H](C)O)N(C)C(=O)[C@H](C)NC(=O)CN(C)C(=O)[C@H](Cc1ccccc1)NC(=O)[C@H](CO)NC(=O)[C@H](CO)NC(=O)[C@H](CCCNC(=N)N)NC(=O)[C@@H](NC(=O)[C@H](CC(C)C)NC(=O)[C@H](Cc1ccccc1)NC(=O)[C@H](CC(N)=O)NC(=O)[C@H](C)NC(=O)[C@H](CC(C)C)NC(=O)[C@H](CCCNC(=N)N)NC(=O)[C@H](CCC(=O)O)NC(=O)[C@@H](NC(=O)[C@H](C)NC(=O)[C@@H]1CSSC[C@H](NC(=O)[C@H](CCCNC(=N)N)NC(=O)CC[C@H](NC(=O)CCCCCCCCCCCCCCCCCCC(=O)O)C(=O)O)C(=O)NCC(=O)N[C@@H]([C@@H](C)O)C(=O)N[C@@H](C)C(=O)N[C@@H]([C@@H](C)O)C(=O)N1)[C@@H](C)O)C(C)C
